From PMC3220584 (The Journal of Biological Chemistry, 2011)

Target: the molecule itself
Assay: SEC-MALS

B1: human collagen VI α3(VI) N-terminal N9-N1 region (domain or fragment, UniProt P12111 237-2028, looked up)
chain: AQDSADIIFLIDGSNNTGSVNFAVILDFLVNLLEKLPIGTQQIRVGVVQFSDEPRTMFSLDTYSTKAQVLGAVKALGFAGGELANIGLALDFVVENHFTRAGGSRVEEGVPQVLVLISAGPSSDEIRYGVVALKQASVFSFGLGAQAASRAELQHIATDDNLVFTVPEFRSFGDLQEKLLPYIVGVAQRHIVLKPPTIVTQVIEVNKRDIVFLVDGSSALGLANFNAIRDFIAKVIQRLEIGQDLIQVAVAQYADTVRPEFYFNTHPTKREVITAVRKMKPLDGSALYTGSALDFVRNNLFTSSAGYRAAEGIPKLLVLITGGKSLDEISQPAQELKRSSIMAFAIGNKGADQAELEEIAFDSSLVFIPAEFRAAPLQGMLPGLLAPLRTLSGTPEVHSNKRDIIFLLDGSANVGKTNFPYVRDFVMNLVNSLDIGNDNIRVGLVQFSDTPVTEFSLNTYQTKSDILGHLRQLQLQGGSGLNTGSALSYVYANHFTEAGGSRIREHVPQLLLLLTAGQSEDSYLQAANALTRAGILTFCVGASQANKAELEQIAFNPSLVYLMDDFSSLPALPQQLIQPLTTYVSGGVEEVPLAQPESKRDILFLFDGSANLVGQFPVVRDFLYKIIDELNVKPEGTRIAVAQYSDDVKVESRFDEHQSKPEILNLVKRMKIKTGKALNLGYALDYAQRYIFVKSAGSRIEDGVLQFLVLLVAGRSSDRVDGPASNLKQSGVVPFIFQAKNADPAELEQIVLSPAFILAAESLPKIGDLHPQIVNLLKSVHNGAPAPVSGEKDVVFLLDGSEGVRSGFPLLKEFVQRVVESLDVGQDRVRVAVVQYSDRTRPEFYLNSYMNKQDVVNAVRQLTLLGGPTPNTGAALEFVLRNILVSSAGSRITEGVPQLLIVLTADRSGDDVRNPSVVVKRGGAVPIGIGIGNADITEMQTISFIPDFAVAIPTFRQLGTVQQVISERVTQLTREELSRLQPVLQPLPSPGVGGKRDVVFLIDGSQSAGPEFQYVRTLIERLVDYLDVGFDTTRVAVIQFSDDPKVEFLLNAHSSKDEVQNAVQRLRPKGGRQINVGNALEYVSRNIFKRPLGSRIEEGVPQFLVLISSGKSDDEVDDPAVELKQFGVAPFTIARNADQEELVKISLSPEYVFSVSTFRELPSLEQKLLTPITTLTSEQIQKLLASTRYPPPAVESDAADIVFLIDSSEGVRPDGFAHIRDFVSRIVRRLNIGPSKVRVGVVQFSNDVFPEFYLKTYRSQAPVLDAIRRLRLRGGSPLNTGKALEFVARNLFVKSAGSRIEDGVPQHLVLVLGGKSQDDVSRFAQVIRSSGIVSLGVGDRNIDRTELQTITNDPRLVFTVREFRELPNIEERIMNSFGPSAATPAPPGVDTPPPSRPEKKKADIVFLLDGSINFRRDSFQEVLRFVSEIVDTVYEDGDSIQVGLVQYNSDPTDEFFLKDFSTKRQIIDAINKVVYKGGRHANTKVGLEHLRVNHFVPEAGSRLDQRVPQIAFVITGGKSVEDAQDVSLALTQRGVKVFAVGVRNIDSEEVGKIASNSATAFRVGNVQELSELSEQVLETLHDAMHETLCPGVTDAAKACNLDVILGFDGSRDQNVFVAQKGFESKVDAILNRISQMHRVSCSGGRSPTVRVSVVANTPSGPVEAFDFDEYQPEMLEKFRNMRSQHPYVLTEDTLKVYLNKFRQSSPDSVKVVIHFTDGADGDLADLHRASENLRQEGVRALILVGLERVVNLERLMHLEFGRGFMYDRPLRLNLLDLDYELAEQLDNIAEKA
stoichiometry N: 2
